Source: PMC3026072

B1: OCTN2 carnitine transporter: N57/64/91Q (protein)
parent chain: MRDYDEVTAFLGEWGPFQRLIFFLLSASIIPNGFTGLSSVFLIATPEHRCRVPDAANLSSAWRNHTVPLRLRDGREVPHSCRRYRLATIANFSALGLEPGRDVDLGQLEQESCLDGWEFSQDVYLSTIVTEWNLVCEDDWKAPLTISLFFVGVLLGSFISGQLSDRFGRKNVLFVTMGMQTGFSFLQIFSKNFEMFVVLFVLVGMGQISNYVAAFVLGTEILGKSVRIIFSTLGVCIFYAFGYMVLPLFAYFIRDWRMLLVALTMPGVLCVALWWFIPESPRWLISQGRFEEAEVIIRKAAKANGIVVPSTIFDPSELQDLSSKKQQSHNILDLLRTWNIRMVTIMSIMLWMTISVGYFGLSLDTPNLHGDIFVNCFLSAMVEVPAYVLAWLLLQYLPRRYSMATALFLGGSVLLFMQLVPPDLYYLATVLVMVGKFGVTAAFSMVYVYTAELYPTVVRNMGVGVSSTASRLGSILSPYFVYLGAYDRFLPYILMGSLTILTAILTLFLPESFGTPLPDTIDQMLRVKGMKHRKTPSHTRMLKDGQERPTILKSTAF
B2: OCTN2 carnitine transporter: tunicamycin (0.5 µg/ml) (protein)
parent chain: B1 parent chain
B3: OCTN2 carnitine transporter: N57Q/N64Q (protein)
parent chain: B1 parent chain
B4: OCTN2 carnitine transporter: N57/91Q (protein)
parent chain: B1 parent chain
B5: OCTN2 carnitine transporter: N64/91Q (protein)
parent chain: B1 parent chain

Tests used:
[1] = anti-GFP Western band intensity, CHO membranes; conditions: glycan lost; control: wild-type OCTN2
[2] = confocal GFP vs Bodipy-ceramide, MetaMorph; conditions: glycan lost; control: wild-type OCTN2
[3] = Michaelis-Menten kinetics after 16 h tunicamycin, CHO; conditions: glycan lost; control: untreated cells
[4] = carnitine 0.5–100 µM uptake, Michaelis-Menten fit, CHO; conditions: glycan lost; control: wild-type OCTN2

Protein | expression_or_secretion [1] | localisation_or_trafficking, other: percent of transporters at plasma membrane [2] | other: kinetic parameters of carnitine transport [3] | other: Vmax of carnitine transport [4]
B1 | decreases | abolishes |  | 
B2 |  |  | no change | 
B3 | no change |  |  | 
B4 |  | decreases |  | 
B5 | decreases | decreases |  | decreases
